Measurements published in patent US20230416726A1 (University of Washington, published 2023).

Biological target: T1, programmed cell death ligand 1 (PD-L1) (UniProt Q9NZQ7 19-239, limits assumed, biotinylated in the yeast display assays)
T1 construct: also called PD-Li
Test: BLI, max binding signal versus PD-L1 concentration

T1 sequence (Q9NZQ7 19-239 limits assumed): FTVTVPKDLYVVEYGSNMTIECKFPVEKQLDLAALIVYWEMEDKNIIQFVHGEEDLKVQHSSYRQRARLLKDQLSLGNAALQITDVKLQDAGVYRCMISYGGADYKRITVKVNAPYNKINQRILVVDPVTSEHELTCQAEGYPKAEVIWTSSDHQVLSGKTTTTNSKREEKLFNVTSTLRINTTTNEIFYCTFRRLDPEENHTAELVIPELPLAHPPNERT

B1: pdl1_inp_1 (purified from E. coli) (designed binder)
chain: DLEEFFEECLKEAEEVRKEVLEGKARIQIKESVRKEDPEGGTYVCGVISLGPKGGKFHVVFHKEDPEGKEETLARFEFKVEGGKVELLELKSKDPELKKLAEKYAEKLLE
notes: Expressed as a monomer; Tested by BLI; not shown: C-terminal SNAC tag and 6xHis tag from the modified pET29b+ vector
Work on B1 yielded a Kd of 326 nM.
